# Article PMC7809799, “A microtubule‐LUZP1 association around tight junction promotes epithelial cell apical constriction” (The EMBO Journal, 2020)
# How the values were obtained:
# [1] = biological target: Flag‐LUZP1 (mouse) (UniProt Q8R4U7); assay: pull-down; in vitro direct binding assay: Flag‐LUZP1 on anti‐Flag M2 affinity gel beads, GST‐MLC 0–8.0 μM in HBS, RT 60 min; washed in 300 mM NaCl, 50 mM Tris–HCl pH 7.5, 1 mM EDTA, 1 mM DTT; immunoblot densitometry, Michaelis–Menten fit
# [2] = biological target: HA‐PP1c β/δ (UniProt P62141 1-327); assay: cell-based or functional assay
# [3] = biological target: Taxol‐stabilized microtubules (tubulin, Cytoskeleton Inc. #T240) (UniProt P02550); assay: co-sedimentation; MT co‐sedimentation: Flag‐LUZP1 (10 μl of 7.7 nM in 20 μl) with 0–6 μM polymerized tubulin, GTP and Taxol, PME buffer/HBS, RT 60 min; 434,513 g, 25°C, 20 min; immunoblot densitometry, Michaelis–Menten fit
Molecule,Kd [1] [nM],"in vitro MLC phosphorylation assay with 1 μg MTs added (25 ng GST‐MLC, 4 ng GST‐ROCK1 catalytic domain, 1 μg GST‐PP1c β/δ, 0–5 μg GST‐LUZP1): ppMLC/MLC ratio relative to the control [2]","in vitro Merlin phosphorylation assay with 1 μg MTs added (100 ng GST‐Merlin, 2 pg PAK1, 1 μg GST‐PP1c β/δ, 0–5 μg GST‐LUZP1): pMerlin/Merlin ratio relative to the control [2]",Kd [3] [nM]
"GST‐tagged di‐dephosphomimetic myosin light chain (T18A, S19A) (natural protein)",4880,,,
"GST‐tagged di‐phosphomimetic myosin light chain (T18D, S19D) (natural protein)",850,,,
GST‐tagged wild‐type myosin light chain (from UniProt Q3THE2 1-172) (natural protein),4040,,,
"GFP‐LUZP1 (natural protein, mouse, UniProt Q8R4U7 1-1068, looked up) MAELTNYKDAASNRHLRFKLQSLSRRLDELEEATKNLQRAEDELLDLQDKVIQAEGSDSSTLAEIEVLRQRVLKIEGKDEEIKRAEDLCHTMKEKLEEEENLTRELKSEIERLQKRMVDLEKLEEALSRSKNECSQLCLSLNEERNLTKKISSELEMLRVKVKELESSEDRLDKTEQSLVSELEKLKSLTLSFVNERKYLNEKEKENEKIIKELTQKLEQNKKMNRDHMRNASTFLERNDLRIEDGISSTLSSKESKRKGSLDYLKQVENETRDKSENEKNRNQEDNKVKDLNQEIEKLKTQIKHFESLEEELKKMRAKNNDLQDNYLTELNRNRSLASQLEEIKLQVRKQKELGNGDIEGEDAFLLGRGRHERTKLKGHGSEASVSKHTSRELSPQHKRERLRNREFALSNEHYSLSSKQASSPVFTNKRAAKASNMGMGTDSGTQETKRTEDRFAPGSSHSEGKRGREQPSVLSRYPPAAQEHTKVWKGAPKPGTESGLKGKVEKTTRTFSDSTHVSVPNDIVGKGDKTSDLSSEAHCGKRGQVPGHASQGTQAVESSCSKAIGALSSSQKASSEGLSKGKKTANGLAADANFSNSKAPILSKYPYSSRSQENILQGFSLPNKEGVDQPVAVVMEDSSQHEALRCRVIKSSGREKPDSDDDLDIESFVTAKLVNTTITPEPEPKPQPNSREKVKSRGGTRTALFENDKNAAIENDSVKPTRPSSNAIEFPDANCAGVKNQRPFSPREALRSRAIIKPVIIDKDVKKIMGGSGTEVVLEKQKSTSKSVTSKVTSSITIYPSDSSGPRAVPSEAPRERHTSTSNIQVGPPELTAISNHVSSPLELSIHKHDITLQLTEAERVGDGSPKNRAEMVVSRSSILIKPSESVEKNSHVPPAETIRWKSHSASSDSRHITVRNAWKSKRDLKCSEDPPTGIGRNMEATNAYTQRPCTDFLELEQPRSQPSEQGARRVGNSGDAPELSPRRTQSSLTASEVLTRRDRMGGAITAASCNHSSSMEEGEDSTFVTSRRIHNPLEHSELPGKQGLPEPEPVWTEERLHPAKPYAEED",,2.87 ratio relative to the control,8.32 ratio relative to the control,780
